This test addresses actin from chicken skeletal muscle (filamentous) (chicken) (UniProt P68139).
With “Drosophila melanogaster indirect flight muscle myosin subfragment 1, converter mutant R759E (domain or fragment)”, the Km for actin of the actin-activated Mg2+-ATPase (Michaelis-Menten fit) was 4.99 µM.
As for “Drosophila melanogaster indirect flight muscle myosin subfragment 1, double mutant R759E/N509K (domain or fragment)”, the figure is 3.58 µM; as for “Drosophila melanogaster indirect flight muscle myosin subfragment 1, wild type (domain or fragment)”, 5.77 µM.

The values are drawn from paper PMC4722456.
